Patent publication US20240174767A1

Target: β2AR wild type (wt) receptor (human) (UniProt P07550)
Assay: cell-based or functional assay

MbNb80^cHopQ (designed binder)
apparent potency shift: IC50 of epinephrine for β2AR-wt alone divided by the IC50^high of epinephrine for β2AR-wt in the presence of MbNb80^cHopQ ([3H]-DHA competition): 2000 fold | apparent potency shift: IC50 of isoprotenerol for β2AR-wt divided by the IC50^high of isoprotenerol for β2AR-wt in the presence of MbNb80^cHopQ ([3H]-DHA competition): 2000 fold
